Experiment [1] addresses T1, human C1q (human, UniProt P02745 23-245; P02746 28-253; P02747 29-245).
T1 construct: it describes C1q as having six globular heads; also called hC1q; human serum derived C1q
Description: sandwich ELISA, C1q from human serum captured by JL-1. From the text:
(§1) Evaluation of binding to serum derived C1q: We compared binding of anti-C1q molecules to C1q from monkey and human serum. Binding to serum derived C1q was preformed using a sandwich ELISA. In this assay, a monoclonal antibody specific to the collagen tail of C1q (JL-1, Abcam) was used to capture the C1q, and then detected using the anti-C1q antibodies, which bind to the globular head groups of C1q. […] Next day, the plates were washed with dPBS (pH 7.4) and blocked with dPBS buffer containing 3% bovine serum albumin (BSA). Diluted serum samples were added to the plates and incubated overnight shaking at 4° C. Human and monkey serum samples were used at 1:2000 dilution in assay buffer, dPBS containing 0.3% BSA and 0.1% tween. Following overnight incubation at 4 C, plates were warmed to room temperature for 2 hours. […] Plates were washed with dPBS with 0.05% tween and then incubated with alkaline phosphatase conjugated anti-human Fc or Kappa antibodies at 1:3000 dilution in assay buffer. Plates were then washed, and detected using an enzyme substrate (T2214, Thermo) and read in a plate reader. Counts were background subtracted and normalized to signal at highest concentration, % normalized values were plotted as a function of concentration for each of the antibodies. Data were fit using a 4-parameter logistic fit to derive $EC50$ of binding and plotted using GraphPad Prism.
On the technique in general: In an ELISA, binding on a coated surface is turned into a signal by an enzyme label.

The target of experiment [2] is T2, Cynomolgus serum derived C1q (cynomolgus monkey, UniProt A0A2K5WJV6 23-243; A0A2K5WNK0 28-253).
T2 construct: also called C1q derived from monkey serum; C1q in monkey serum
As to the kind of experiment: sandwich ELISA, C1q from cynomolgus serum captured by JL-1.
From the text: as §1

The target in experiment [3] is T2, Cynomolgus serum derived C1q. Description: cell-based or functional assay.
Experiment [4] addresses T1, human C1q. As to the kind of experiment: cell-based or functional assay.
Experiment [5] addresses T2, Cynomolgus serum derived C1q. As to the kind of experiment: sandwich ELISA, serum C1q captured by JL-1; cynomolgus against human serum.
From the text: as §1

Experiment [6] deals with T1, human C1q. Description: cell-based or functional assay. The source holds these as a separate data set.
The target of experiment [7] is T1, human C1q. Description: sandwich ELISA, serum C1q captured by JL-1; the low end is tied to human serum by Table 1.
From the text: as §1

The target in experiment [8] is T1, human C1q. As to the kind of experiment: direct ELISA, purified human C1q coated on the plate, luminescence.
Description: Next day, plates are washed with dPBS thrice and blocked with 3% BSA/PBS for 1 hour at room temperature (RT). […] Following incubation for 1 hour at RT, plates are washed 4× with dPBS 0.05% Tween. Then, alkaline phosphatase (AP) conjugated secondary antibodies to human kappa (Abcam) and human FC (Jackson Immunoresearch), respectively at 2000-4000-fold dilution. After an additional 1 hour of incubation at RT, plates are washed 4× with dPBS 0.05% Tween and luminescence signal was developed with AP substrate (#T2214, Thermo Scientific). Luminescence counts were measured using a luminometer (Spectramax i3×, Molecular Devices). Raw counts were fit using a 4-parameter logistic to derive $EC50$ for human C1q binding (Prism, GraphPad).
Experiment [9] concerns the target T2, Cynomolgus serum derived C1q. As to the kind of experiment: sandwich ELISA, serum C1q captured by JL-1; the high end is tied to cynomolgus serum by Table 1.
From the text: as §1

For experiment [10] the target is unchanged. Description: sandwich ELISA, serum C1q captured by JL-1; the high end is tied to the single-arm antibody by Table 1 (2.1).
From the text: as §1

The record followed here is patent US12486322 (ANNEXON, dated 2025).

What is called EC50 is the concentration needed to bring the measured effect to its halfway point. Read a high EC50 as lower potency in that assay.

T1 sequence (P02745 23-245 limits assumed, chain 1 of 3): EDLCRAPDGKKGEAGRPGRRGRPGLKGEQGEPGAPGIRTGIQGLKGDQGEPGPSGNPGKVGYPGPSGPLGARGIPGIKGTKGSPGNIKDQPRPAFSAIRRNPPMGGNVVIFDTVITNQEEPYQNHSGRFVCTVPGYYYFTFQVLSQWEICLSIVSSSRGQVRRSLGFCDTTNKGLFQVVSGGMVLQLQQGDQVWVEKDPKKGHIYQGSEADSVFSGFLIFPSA
T1 sequence (P02746 28-253 limits assumed, chain 2 of 3): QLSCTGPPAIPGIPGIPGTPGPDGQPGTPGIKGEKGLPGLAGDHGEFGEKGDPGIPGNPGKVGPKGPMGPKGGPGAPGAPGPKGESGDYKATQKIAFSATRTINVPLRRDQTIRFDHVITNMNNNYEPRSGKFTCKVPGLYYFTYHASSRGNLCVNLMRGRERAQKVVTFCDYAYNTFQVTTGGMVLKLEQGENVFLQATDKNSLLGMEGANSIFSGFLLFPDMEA
T1 sequence (P02747 29-245 limits assumed, chain 3 of 3): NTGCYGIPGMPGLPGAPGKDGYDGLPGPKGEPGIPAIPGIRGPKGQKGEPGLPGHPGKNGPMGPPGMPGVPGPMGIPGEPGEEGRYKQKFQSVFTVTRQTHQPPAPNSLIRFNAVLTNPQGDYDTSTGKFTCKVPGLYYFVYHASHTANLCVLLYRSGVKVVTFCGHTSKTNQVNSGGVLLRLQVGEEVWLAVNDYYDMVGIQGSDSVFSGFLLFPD

B1: anti-C1q single-arm antibody (with IgG4 and Fcγ receptor binding site mutation) (antibody)
light: DVQITQSPSSLSASLGERATINCRASKSINKYLAWYQQKPGKAPKLLIYSGSTLQSGIPARFSGSGSGTDFTLTISSLEPEDFAMYYCQQHNEYPLTFGQGTKLEIKRTVAAPSVFIFPPSDEQLKSGTASVVCLLNNFYPREAKVQWKVDNALQSGNSQESVTEQDSKDSTYSLSSTLTLSKADYEKHKVYACEVTHQGLSSPVTKSFNRGEC
heavy: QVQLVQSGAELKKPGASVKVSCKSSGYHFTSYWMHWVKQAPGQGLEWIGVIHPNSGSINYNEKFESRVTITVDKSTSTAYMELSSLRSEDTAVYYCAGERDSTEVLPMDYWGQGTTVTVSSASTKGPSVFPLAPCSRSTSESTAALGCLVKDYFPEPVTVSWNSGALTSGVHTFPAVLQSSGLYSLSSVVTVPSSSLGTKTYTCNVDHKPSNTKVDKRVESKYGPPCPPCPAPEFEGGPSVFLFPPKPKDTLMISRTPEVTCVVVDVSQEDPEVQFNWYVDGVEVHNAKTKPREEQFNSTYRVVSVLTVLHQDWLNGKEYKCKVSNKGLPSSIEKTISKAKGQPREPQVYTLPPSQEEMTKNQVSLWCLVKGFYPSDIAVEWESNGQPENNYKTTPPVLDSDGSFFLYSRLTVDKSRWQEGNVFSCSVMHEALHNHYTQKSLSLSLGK
chain: ESKYGPPCPPCPAPEFEGGPSVFLFPPKPKDTLMISRTPEVTCVVVDVSQEDPEVQFNWYVDGVEVHNAKTKPREEQFNSTYRVVSVLTVLHQDWLNGKEYKCKVSNKGLPSSIEKTISKAKGQPREPQVYTLPPSQEEMTKNQVSLSCAVKGFYPSDIAVEWESNGQPENNYKTTPPVLDSDGSFFLVSRLTVDKSRWQEGNVFSCSVMHEALHNHYTQKSLSLSLGK
notes: The third chain is the N-terminally truncated heavy chain (hinge-CH2-CH3, hole mutations); also called single-arm molecule; anti-C1q single-arm antibody (monovalent)
Consider B1, for which the EC50 is 178 nM in experiment [1]; 378 nM in experiment [2]; 150 to 400 nM in [7]; 0.05 nM in experiment [8]; 150 to 400 nM in [9]. The “IC50 for hemolysis inhibition (nM), Cyno serum” value in experiment [3] worked out at 5.5 nM. Further, in experiment [3], the “IC50 for hemolysis inhibition, Ratio Cyno:Human” value turned out to be 0.6. In [4], the “IC50 for hemolysis inhibition (nM), Human serum” value was found to be 9.9 nM. Also, the “Ratio Cyno:Human (binding EC50)” value in experiment [5] came to 2.1. The “IC50 for inhibition of serum hemolysis” value in experiment [6] is 3 to 10 nM. Also, in experiment [10], the “fold weaker binding EC50 in cynomolgus serum compared to human serum” value lay within 1 to 2 fold.
